Assay results reported in patent publication US20130131320A1 (TOHOKU UNIVERSITY, published 2013).

Assays:
[1] = biological target: T1, soluble EGFR (human epithelial cell growth factor receptor 1, Her1) (human, UniProt P00533 25-645, limits assumed); assay: ITC, 50 uM Fv titrated into 5 uM soluble EGFR
T1 construct: The metal chelate purification implies a His tag, but none is described; also called target antigen
Method: (§1) The resulting mutants were then subjected to thermodynamic analysis by means of Isothermal Titration calorimeter. […] Binding enthalpy (ΔH) and binding coefficient (Ka) were calculated from the change of calorie during the above titration. Free Energy Change (ΔG) and Binding Entropy Change (ΔS) were then calculated from the above values.

[2] = biological target: T1, soluble EGFR (human epithelial cell …); assay: ITC; lower end tied to 5.0.0 by Table 4 (14.9 against 1.9)
Method: as §1

B1: h528Fv WT (other)
VH: QVQLVQSGAEVKKPGASVKVSCKASGYTFTSYWMHWVRQAPGQGLEWMGNIYPGSGGTNYAEKFKNRVTMTRDTSISTAYMELSRLRSDDTAVYYCARSGGPYFFDYWGQGTLVTVSS
VL: DIVMTQSPLSLPVTPGEPASISCRSSQNIVHNNGITYLEWYLQKPGQSPQLLIYKVSDRFSGVPDRFSGSGSGTDFTLKISRVEAEDVGVYYCFQGSHIPPTFGQGTKVEIKR
notes: Fv fragment: VH and VL co-expressed in E. coli BL21; Purified by metal chelate chromatography; the tag is not described; also called wild type humanized Fv
Ka [1]: 1.9e+07 M⁻¹
TΔS [1]: -4.66 kcal/mol
ΔG [1]: -9.92 kcal/mol
ΔH [1]: -14.6 kcal/mol

B2: h528Fv 5.0.0 (other)
VH: QVQLVQSGAEVKKPGASVKVSCKASGYTFTSYWMHWVRQAPGQGLEWMGNIWPGSGGTNYAEKFKNRVTMTRDTSISTAYMELSRLRSDDTAVYYCARSGGPYFFDYWGQGTLVTVSS
VL: DIVMTQSPLSLPVTPGEPASISCRSSQNIVHNNGITYLEWYLQKPGQSPQLLIYKVSDRFSGVPDRFSGSGSGTDFTLKISRVEAEDVGVYYCFQGSHIPPTFGQGTKVEIKR
Ka [1]: 1.49e+08 M⁻¹
TΔS [1]: -9.85 kcal/mol
ΔG [1]: -11.2 kcal/mol
ΔH [1]: -21 kcal/mol
fold increase of Ka over h528Fv WT [2]: 8 to 33 fold

B3: h528Fv 5.12.0 (other)
VH: QVQLVQSGAEVKKPGASVKVSCKASGYTFTSYWMHWVRQAPGQGLEWMGNIWPGKGGTNYAEKFQKRVTMTRDTSISTAYMELSRLRSDDTAVYYCARSGGPYFFDYWGQGTLVTVSS
VL: DIVMTQSPLSLPVTPGEPASISCRSSQNIVHNNGITYLEWYLQKPGQSPQLLIYKVSDRFSGVPDRFSGSGSGTDFTLKISRVEAEDVGVYYCFQGSHIPPTFGQGTKVEIKR
Ka [1]: 4.42e+08 M⁻¹
TΔS [1]: -4.88 kcal/mol
ΔG [1]: -11.8 kcal/mol
ΔH [1]: -16.7 kcal/mol

B4: h528Fv 5.11.T (other)
VH: QVQLVQSGAEVKKPGASVKVSCKASGYTFTSYWMHWVRQAPGQGLEWMGNIWPGTGGTNYAEKFQQRVTMTRDTSISTAYMELSRLRSDDTAVYYCTRSGGPYFFDYWGQGTLVTVSS
VL: DIVMTQSPLSLPVTPGEPASISCRSSQNIVHNNGITYLEWYLQKPGQSPQLLIYKVSDRFSGVPDRFSGSGSGTDFTLKISRVEAEDVGVYYCFQGSHIPPTFGQGTKVEIKR
Ka [1]: 5.24e+08 M⁻¹
TΔS [1]: -8.08 kcal/mol
ΔG [1]: -11.9 kcal/mol
ΔH [1]: -20 kcal/mol

B5: h528Fv 5.73.0 (other)
VH: QVQLVQSGAEVKKPGASVKVSCKASGYTFTSYWMHWVRQAPGQGLEWMGNIWPGNGGTNYAEQFKQRVTMTRDTSISTAYMELSRLRSDDTAVYYCARSGGPYFFDYWGQGTLVTVSS
VL: DIVMTQSPLSLPVTPGEPASISCRSSQNIVHNNGITYLEWYLQKPGQSPQLLIYKVSDRFSGVPDRFSGSGSGTDFTLKISRVEAEDVGVYYCFQGSHIPPTFGQGTKVEIKR
Ka [1]: 4.95e+08 M⁻¹
TΔS [1]: -5.14 kcal/mol
ΔG [1]: -11.9 kcal/mol
ΔH [1]: -17 kcal/mol

B6: h528Fv 5.98.0 (other)
VH: QVQLVQSGAEVKKPGASVKVSCKASGYTFTSYWMHWVRQAPGQGLEWMGNIWPGQGGTNYAEKFKSRVTMTRDTSISTAYMELSRLRSDDTAVYYCARSGGPYFFDYWGQGTLVTVSS
VL: DIVMTQSPLSLPVTPGEPASISCRSSQNIVHNNGITYLEWYLQKPGQSPQLLIYKVSDRFSGVPDRFSGSGSGTDFTLKISRVEAEDVGVYYCFQGSHIPPTFGQGTKVEIKR
Ka [1]: 5.05e+08 M⁻¹
TΔS [1]: -6.43 kcal/mol
ΔG [1]: -11.9 kcal/mol
ΔH [1]: -18.4 kcal/mol
